Measurements published in patent US11306156.
pKd: −log10 of the molar value.

Columns and labels:
[1] = target: tissue factor (TF) (human) (UniProt P13726); assay: SPR (ProteOn), Fab captured on anti-penta His, TF analyte, 1:1 fit
[2] = target: tissue factor (TF) antigen (UniProt P13726); assay: SPR, Fab captured on anti-penta-His, TF as analyte, 1:1 fit
[3] = target: tissue factor (TF) antigen (UniProt P13726); assay: SPR (ProteOn), Fab captured on anti-penta-His, TF as analyte, 1:1 fit

tissue factor (TF) antigen, sequence (P13726 33-251 limits assumed): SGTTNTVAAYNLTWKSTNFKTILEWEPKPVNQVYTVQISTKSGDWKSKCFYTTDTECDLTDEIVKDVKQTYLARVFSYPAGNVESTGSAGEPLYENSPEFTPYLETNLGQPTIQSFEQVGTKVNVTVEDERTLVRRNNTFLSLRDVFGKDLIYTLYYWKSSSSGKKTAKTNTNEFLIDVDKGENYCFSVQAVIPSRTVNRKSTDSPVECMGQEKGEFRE
tissue factor (TF) (human), sequence (P13726 33-251 limits assumed): as above

Row | Substance | pKd [1] | change in KD vs wild type, -(log(KD design)-log(KD wt)) [1] | also measured
1 | H1L1 Fab heterodimer of LCCA set 9566 (D3H44 Fab; H: L124W_L143F; L: V133A) | 9.60 | -0.21 | 
2 | H1L1 Fab heterodimer of LCCA set 9205 (D3H44 Fab; H: L124E_L143D_K145M; L: V133G_S176R_T178K) | 9.55 | -0.25 | 
3 | H1L1 Fab heterodimer of LCCA set 9052 (D3H44 Fab; H: A139G_F174V_V190A; L: S131T_L135F_S176F_T178F) | 9.85 | 0.06 | 
4 | H1L1 Fab heterodimer of LCCA set 9259 (D3H44 Fab; H: L124E_L143E_K145M; L: Q124K_V133G_S176R_T178K) | 9.62 | -0.19 | 
5 | H1L1 Fab heterodimer of LCCA set 9070 (D3H44 Fab; H: F174G; L: S131T_S176F_T178Y) | 9.80 | 0 | 
6 | H1L1 Fab heterodimer of LCCA set 9071 (D3H44 Fab; H: F174V; L: S131T_S176F_T178F) | 9.68 | -0.12 | 
7 | H1L1 Fab heterodimer of LCCA set 9068 (D3H44 Fab; H: F174G; L: S131T_S176F_T178F) | 9.89 | 0.07 | 
8 | H1L1 Fab heterodimer of LCCA set 9734 (D3H44 Fab; H: L143K_D146G; L: Q124E_V133D) | 9.59 | -0.22 | 
9 | H1L1 Fab heterodimer of LCCA set 9073 (D3H44 Fab; H: F174V; L: S131T_S176F_T178Y) | 9.85 | 0.04 | 
10 | H1L1 Fab heterodimer of LCCA set 9043 (D3H44 Fab; H: F122C_C233S; L: S121C_C214S) | 9.80 |  | 
11 | D3H44 Fab heterodimer, H L124E_L143E_K145M / L Q124K_V133G_S176R_T178K |  |  | Change in KD with respect to wild type (-(log(KD design) - log(KD wt))) [2]: -0.19; pKd [2]: 9.62
12 | H1L1 Fab heterodimer of LCCA set 9044 (D3H44 Fab; H: P175C_C233S; L: S162C_C214S) | 9.74 |  | 
13 | H1L1 Fab heterodimer of LCCA set 6037 (D3H44 Fab; H: L124A; L: V133W) | 9.89 | 0.07 | 
14 | D3H44 Fab heterodimer, H L124E_L143D_K145T / L Q124K_V133G_S176R_T178K |  |  | Change in KD with respect to wild type (-(log(KD design) - log(KD wt))) [2]: -0.08; pKd [2]: 9.72
15 | H1L1 Fab heterodimer of LCCA set 9732 (D3H44 Fab; H: L143K; L: Q124E_V133D_S176L) | 9.55 | -0.25 | 
16 | H1L1 Fab heterodimer of LCCA set 9102 (D3H44 Fab; H: L124A_S186K; L: Q124E_V133W_T180E) | 9.82 | 0.02 | 
17 | H1L1 Fab heterodimer of LCCA set 9573 (D3H44 Fab; H: L143A_Q179K; L: Q124E_V133Y_T180E) | 9.57 | -0.23 | 
18 | H1L1 Fab heterodimer of LCCA set 9911 (D3H44 Fab; H: S188L; L: WT) | 10.05 | 0.27 | 
19 | H1L1 Fab heterodimer of LCCA set 9447 (D3H44 Fab; H: L124R_Q179K; L: V133G_S176D_T180E) | 9.55 | -0.26 | 
20 | H1L1 Fab heterodimer of LCCA set 9491 (D3H44 Fab; H: L124R_S186K; L: V133G_S176D_T180E) | 9.62 | -0.19 | 

Row | Substance | pKd [1] | change in KD vs wild type, -(log(KD design)-log(KD wt)) [1] | also measured
21 | H1L1 Fab heterodimer of LCCA set 9725 (D3H44 Fab; H: L143E_K145T_S188L; L: Q124R_Q160K_T178R) | 9.62 | -0.19 | 
22 | H1L1 Fab heterodimer of LCCA set 9351 (D3H44 Fab; H: L124R_D146N_Q179K; L: Q124E_V133G_S176D_T178E_T180E) | 9.70 | -0.1 | 
23 | H1L1 Fab heterodimer of LCCA set 9914 (D3H44 Fab; H: S188L_V190F; L: WT) | 9.82 | 0.01 | 
24 | H1L1 Fab heterodimer of LCCA set 9704 (D3H44 Fab; H: L143E_K145T_S188L; L: Q124R) | 9.68 | -0.12 | 
25 | H1L1 Fab heterodimer of LCCA set 9743 (D3H44 Fab; H: L143R; L: Q124E_V133E_S176L) | 9.55 | -0.25 | 
26 | H1L1 Fab heterodimer of LCCA set 9041 (D3H44 Fab; H: A139C_C233S; L: F116C_C214S) | 9.85 |  | 
27 | H1L1 Fab heterodimer of LCCA set 9100 (D3H44 Fab; H: L124A_Q179K; L: Q124E_V133W_T180E) | 9.92 | 0.1 | 
28 | H1L1 Fab heterodimer of LCCA set 9987 (D3H44 Fab; H: L143E_K145T; L: Q124R_T178R) | 9.96 | 0.15 | 
29 | H1L1 Fab heterodimer of LCCA set 9364 (D3H44 Fab; H: L124R_D146N_Q179K; L: V133G_S176D_T180E) | 9.82 | 0.01 | 
30 | D3H44 Fab heterodimer, H Q179K / L Q124E_Q160E_T178E |  |  | Change in KD with respect to wild type (-(log(KD design) - log(KD wt))) [3]: -0.27; pKd [3]: 9.54
31 | D3H44 Fab heterodimer, H Q179R / L Q124E_T178E |  |  | Change in KD with respect to wild type (-(log(KD design) - log(KD wt))) [3]: 0.04; pKd [3]: 9.85
32 | H1L1 Fab heterodimer of LCCA set 9906 (D3H44 Fab; H: S188G; L: S176L) | 9.96 | 0.14 | 
33 | D3H44 Fab heterodimer, H Q179K / L Q124E_S131T_T178F_T180E |  |  | Change in KD with respect to wild type (-(log(KD design) - log(KD wt))) [3]: 0.13; pKd [3]: 9.92
34 | D3H44 Fab heterodimer, H Q179R / L Q124E_Q160E_T178E |  |  | Change in KD with respect to wild type (-(log(KD design) - log(KD wt))) [3]: 0.16; pKd [3]: 9.96
35 | H1L1 Fab heterodimer of LCCA set 9213 (D3H44 Fab; H: L124E_L143D_K145T; L: Q124K_V133G_S176R) | 9.70 | -0.11 | 
36 | H1L1 Fab heterodimer of LCCA set 9917 (D3H44 Fab; H: S188L_V190Y; L: V133S) | 10.00 | 0.2 | 
37 | H1L1 Fab heterodimer of LCCA set 9175 (D3H44 Fab; H: L124E_L143D_K145M; L: Q124K_V133G_S176R) | 9.60 | -0.21 | 
38 | H1L1 Fab heterodimer of LCCA set 9737 (D3H44 Fab; H: L143R; L: Q124E_V133E) | 9.70 | -0.09 | 
39 | D3H44 Fab heterodimer, H L124A_S186K / L Q124E_V133W_T180E |  |  | Change in KD with respect to wild type (-(log(KD design) - log(KD wt))) [3]: 0.02; pKd [3]: 9.82
